Test results from publication PMC6378967.

Test: steady-state kinetics, released Ang I immunoassay
Conditions: glycan lost; control: fully glycosylated WT AGT

Protein	other: proteolytic processing, kcat_Km
angiotensinogen (AGT): N14Q (protein) parent chain: MAPAGVSLRATILCLLAWAGLAAGDRVYIHPFHLVIHNESTCEQLAKANAGKPKDPTFIPAPIQAKTSPVDEKALQDQLVLVAAKLDTEDKLRAAMVGMLANFLGFRIYGMHSELWGVVHGATVLSPTAVFGTLASLYLGALDHTADRLQAILGVPWKDKNCTSRLDAHKVLSALQAVQGLLVAQGRADSQAQLLLSTVVGVFTAPGLHLKQPFVQGLALYTPVVLPRSLDFTELDVAAEKIDRFMQAVTGWKTGCSLMGASVDSTLAFNTYVHFQGKMKGFSLLAEPQEFWVDNSTSVSVPMLSGMGTFQHWSDIQDNFSVTQVPFTESACLLLIQPHYASDLDKVEGLTFQQNSLNWMKKLSPRTIHLTMPQLVLQGSYDLQDLLAQAELPAILHTELNLQKLSNDRIRVGEVLNSIFFELEADEREPTESTQQLNKPEVLEVTLNRPFLFAVYDQSATALHFLGRVANPLSTA	increases, 0.64 ± 0.03 vs 0.25 ± 0.01, 0.64 ± 0.03 (252%)
angiotensinogen (AGT): N4 (protein) parent chain: MAPAGVSLRATILCLLAWAGLAAGDRVYIHPFHLVIHNESTCEQLAKANAGKPKDPTFIPAPIQAKTSPVDEKALQDQLVLVAAKLDTEDKLRAAMVGMLANFLGFRIYGMHSELWGVVHGATVLSPTAVFGTLASLYLGALDHTADRLQAILGVPWKDKNCTSRLDAHKVLSALQAVQGLLVAQGRADSQAQLLLSTVVGVFTAPGLHLKQPFVQGLALYTPVVLPRSLDFTELDVAAEKIDRFMQAVTGWKTGCSLMGASVDSTLAFNTYVHFQGKMKGFSLLAEPQEFWVDNSTSVSVPMLSGMGTFQHWSDIQDNFSVTQVPFTESACLLLIQPHYASDLDKVEGLTFQQNSLNWMKKLSPRTIHLTMPQLVLQGSYDLQDLLAQAELPAILHTELNLQKLSNDRIRVGEVLNSIFFELEADEREPTESTQQLNKPEVLEVTLNRPFLFAVYDQSATALHFLGRVANPLSTA	increases, 0.65 ± 0.08 vs 0.25 ± 0.01, 0.65 ± 0.08 (255%)
